Test results reported in paper doi:10.1101/2020.05.28.122556.

Key:
[1] = target: EED (amino acids 40-441) (human) (UniProt O75530); assay: fluorescence polarisation
[2] = target: 5-carboxyfluorescein (5-FAM, single isomer) labelled JARID2-K116me3 peptide; assay: fluorescence polarisation

Chain of EED (amino acids 40-441) (human) (O75530 40-441): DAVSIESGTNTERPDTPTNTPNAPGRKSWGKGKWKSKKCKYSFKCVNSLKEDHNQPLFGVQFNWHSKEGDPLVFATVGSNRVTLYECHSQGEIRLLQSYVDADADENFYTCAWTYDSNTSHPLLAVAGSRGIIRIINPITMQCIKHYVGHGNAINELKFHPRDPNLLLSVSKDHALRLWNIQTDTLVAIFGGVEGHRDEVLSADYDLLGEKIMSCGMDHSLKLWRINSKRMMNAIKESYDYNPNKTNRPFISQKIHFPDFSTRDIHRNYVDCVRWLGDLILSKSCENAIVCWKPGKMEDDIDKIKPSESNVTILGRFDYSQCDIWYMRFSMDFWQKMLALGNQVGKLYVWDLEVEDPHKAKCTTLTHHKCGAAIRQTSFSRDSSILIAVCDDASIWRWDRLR
Chain of EED (amino acids 40-441) (O75530 40-441): as above

| Kd [1] [µM] | Substance | other results |
| --- | --- | --- |
| 7.53 | PALI1-K1219me3 peptide | – |
| 18.8 | PALI1-K1241me2 peptide | – |
| 8.47 | PALI1-K1241me3 peptide | – |

More lines, now with the values behind:

| Substance | Kd [1] [µM] | other results |
| --- | --- | --- |
| PALI1-K1241me1 peptide | 240 | – |
| H3K27me3 peptide | 41.3 | – |
| PALI1-K1214me3 peptide | – | fold lower affinity than PALI1-K1219me3 and PALI1-K1241me3 [1]: 4 fold |
| EED (amino acids 40-441) (from UniProt O75530-1 40-441) (domain or fragment) | – | Kd [2]: 8.07 µM |
